Data from patent US20180186897A1 (INSTITUTE FOR RESEARCH IN BIOMEDICINE, published 2018).
Where a chain is given by its changes, count along the chain named.

B1: MGC26 (antibody)
VH: EVQLVDSGGGLVQPGGSLRLSCAASGFTFSTYWMTWVRQTPGKGLEWVASIKQDGTERYYVDSVKGRFIISRDNAKNSLYLQMHSLRAEDTAVYYCVRDRFCRDHMHIEEDLPRPSISPEPATVIPLGSHVTIVCRGPVGVETFRLQKESRSLYNDTEDVSQPSPSESEARFRIDSVSEGHGGLYRCLYYKSSKWSEQSDYLEMLVKGEDVTWALFPYCGGDGEESDYYMDVWGKGTTVTVSS
VL: DIQLTQSPSTLSASVGDRVTISCRASQRLSRSLAWYQQRPRKAPNLLIYKASPLEIGGPSRFTGSGSGTEFTLTISSLQPDDSATYYCQQYSNYSYSFGQGTKLEIR
B2: MGD56 (antibody)
VH: QVQLQESGPGLVKPSGTLSLTCAVSGGSITTNNWWSWVRQTPGKGLEWIGEIFRSGTTNYNPSLKSRVAISLDKSKNQFSLKLTSVTAADTAVYYCATASPFKSQRDTKDLPRPSLSAEPGTVIPLGSHVTFVCRGPVGVQTFRLQRESRSLYNDTEDVSHPSPSESEARFRIDSVSEGNAGPYRCVYYKSSKWSEESDCLELLVKTEDVTWARPQPQLDPRACPRGDLRISTDVYYMDVWGKGTTVTVSS
VL: AIRMTQSPSSLSASTGDRVTITCRASQAITSYLAWYRQKPGKAPDLLIYNASTLQSGVPSRFSASGSGTDFALTITGLQSEDFVIYFCQHYYTYPPAFGQGTRLEIK
B3: MGC4 (antibody)
VH: EVQLVESGGGLVQPGGSLRLSCEGSGFNSRSYWMTWVRQAPGKGLEWVASINQDGTEKNYVDSVKGRFTISRDSAKNSLYLQMSSLRADDTAVYYCARDRFCGGESHLHGEEDLPRPSISAEPDTVIPLGSHVTFVCRGPVGVHTFRLERGWRYNDTEDVSQAGPSESEARFRIDSVREGNAGLYRCIYYIAPKWSEQSDYLELRVKGGDVTWALLTYCGGDGEESDYPMDVWGKGTTVTVSS
VL: QTVVTQEPSLTVSPGGTVTLTCASSTGPVTSAYYPNWFQQKPGQAPRSLIYSINKKHSWTPARFSGSLLGGKAALTLSGVQPEDEADYYCLLSCGGAQPWVFGGGTKLTVQ
B4: MGC7 (antibody)
VH: EVQLVESGGDLVQPGGSLRLSCAASGFTFRNYWMSWVRQTPGKGLEWVANIRQDGSEKYYVDSVKGRFTISRDNAKNLLYLQMNSLRAEDTAVYYCVRDKFCSDENHMHVADDLPRPSISPEPGTVIPLGSHVTFVCRGPVGVQTFRLEKDRRSTYNDTEDVSQPSPSESEARFRIDSVTEGNAGLYRCVYYKPPKWSDQSDFLELLVKGEDVTWALFPHCGADGEDSDYYMDVWGKGTTVTVSS
VL: DIQMTQSPSSVSASVGDRVTITCRASQGLSTWLAWYQQKPGKAPKILIYAASSLQSGVPSRFSGSGSGTDFTLTISSLQPEDFATYYCQQANSFPLTFGGGTKVEIK
B5: MGC28 (antibody)
VH: EVQLVESGGGLVQPGGSLRLSCEASGFTFSSYWMTWVRQAPGKGLEWVANINQDGSERYYVDSVKGRFTISRDTVKNSLYLQMNNLRAEDTAVYYCARQRFCSDGSLFHGEDLPRPTISAETGTVISLGSHVTFVCRGPLGVQTFRLERESRSRYSETEDVSQVGPSESEARFRIDSVSEGNAGLYRCIYYKPPKWSEQSDYLELRVKGEDVTWALLTYCGGDRDESDYYMDVWGKGTTVTVSS
VL: QTVVTQEPSLTVSPGGTVTLTCASSTGSVTSGSFPNWFQQTPGQAPRSLIYSTTKKHSWTPARFSGSLLGGKAALTVSDTQPEDEAEYYCLLYCGGGQPWVFGGGTKLTVL
B6: MGC33 (antibody)
VH: B5 VH with Q3H
VL: B5 VL with L111Q
B7: MGD41 (antibody)
VH: EVQLVESGPGLVKPSGTLSVTCTISGGSINTDKWWTWVRQPPGKGLEWVGEVLHTGSTNYNPSLRGRVTISVDKSKNQFSLRLSSVTAADTAVYYCATISTLRPQRDIEDLPRPSLSAEPGTVVPLGSHVTFVCRGPVGVQTFRLERESRSTYNDTEDVSQPSPFESEARFRIDSVSEGNAGPYRCIYYKSPKWSDQSDYVELLVKGEDVTWAPPQSQLAPRACPQGELRTSTDIFSMNVWGKGTTVTVSS
VL: AIRMTQSPSSLSAFTGDRVTISCRASQDIGNYLDWYHQKPGRAPKLLIHGASTLLTGVPSRFSGSGSGTDFTLNITCLQSGDFGIYYCLQYYSSPPAFGPGTRLEIK
B8: MGC17 (antibody)
VH: EVQLVESGGGLVQPGGSLKLSCVASGFNFRKSWMSWVRQAPGKGLEWVANIREDGSKAYYVDSVKGRFTVSRDNAKNSLYLQINSLRADDTAVYYCARDRFCSDDEDHSHGAEDLPRPSISAEEGTVIPLGSRLTFVCRGPVGVHTFRLERDRRSTYNDTEDVSHPSPSESEARFRIDSVSEGNAGLYRCVYYKSPEWSKQSDYLELLVKGQEVTWALFTSCGGDGEVPDYDMDVRGKGTTVTVSS
VL: DIVMTQSPDSLAVSLGERATINCKSSQSVLYRSKNKKYLAWFQQRPGQPPKVLIYWTSTRASGVPDRFSGSGSGTDFTLTISSLQADDVAVYYCQQYFIFPYTFGQGTKLEIR
B9: MGC32 (antibody)
VH: EVQLVESGGGLVQPGGSLRLSCVASGFNFRKSWMGWVRQAPGKGLEWVANIREDGSESFYADSVKGRFTVSRDNAKKSLYLHINSLRAEDTAVYYCARDRFCNDDEIHRHGQEDLPRPSISAAEGTVIPLGSHVTFVCRGPVGVQTFRLEKDSRSIYNDTENVSQPSPSESEARFRIDSVSEGNAGLYRCVYYKAPKWSAQSDYLELLVKGQEVTWALFTSCGGDGEEPDYDMDVRGKGTTVTVSS
VL: B8 VL with V3L, K37N, R45K, W56S, S69T, D87E, Q95L, F98Y, F100T, R113K
B10: MGD47 (antibody)
VH: QVRLQESGPGLVKPSGTLSLTCTVSGGSISGYKWWSWVRQAPGKGLEWIGQVYDDGDTNYNPDLKGRVALSVDKSKSRFSLSLASVTAADTAIYFCATISPLRPQSDTGDLPRPSISAEPGTAIPLGSQVTFVCRGPIGVQTFRLERESRALYNDSEDVSQVSPSASEARFRIDSVSEGNAGPYRCIYYKARRWSDQSDYLELLVKGEDVTWALPQSQLAPRACPQEDLNISTDIFSTNVWGKGTTVTVSS
VL: AIRMTQSPASLSASVGDRVTITCRTSQDVGNYLDWYQQKPGKAPKLLIHGASTLQAGVPSRFNGSGSGTDFTLGISCVQSGDFAIYYCQQYYTSPPVFGQGTRLEIK
B11: MGD55 (antibody)
VH: QVQLQESGPGLVKPSGTLSLTCTVSGGSISAYKWWSWVRQAPGKGLEWIGQVYHNGNTNYNPSLKGRVAMSVDKSKNRFSLRLASVTAADTAVYYCATISPLRPQSDTDDLPRPSISAEPGTVIPLGSHVTFVCRGPIGVQTFRLERESRSLYSDTEDVSQVSPFASEARFRIDSVSEGNAGPYRCIYYKDRKWSDQSDYLELLVKGEDVTWALPQSQLAPRACPQEELNISTDIFSMNVWGKGTTVTVSS
VL: B10 VL with V15I, A56T, N63S, S67A, G74N, S76T, V78L, I85M, T93S, V97G

These binders were tested against erythrocytes infected with P. falciparum field isolate 9106 (assay: flow cytometry, staining of IEs).

Row | Binder | % parasite recognition
1 | B1 | 8.5%
2 | B2 | 3.3%
3 | B3 | 6.7%
4 | B4 | 6.9%
5 | B5 | 7.5%
6 | B6 | 7.5%
7 | B7 | 3.8%
8 | B8 | 1.3%
9 | B9 | 7.8%
10 | B10 | 10.7%
11 | B11 | 14.3%

These binders were tested against erythrocytes infected with P. falciparum field isolate 9215 (assay: flow cytometry, staining of IEs).

Row | Binder | % parasite recognition
12 | B1 | 9.5%
13 | B2 | 12%
14 | B3 | 21.7%
15 | B4 | 19.3%
16 | B5 | 10.8%
17 | B6 | 11.5%
18 | B7 | 14.7%
19 | B8 | 16.7%
20 | B9 | 13.1%
21 | B10 | 22.3%
22 | B11 | 38.8%

The binders below were run against erythrocytes infected with P. falciparum field isolate 10975 (assay: flow cytometry, staining of IEs).

Row | Binder | % parasite recognition
23 | B1 | 7.3%
24 | B2 | 6.7%
25 | B3 | 6.7%
26 | B4 | 0.7%
27 | B5 | 12.3%
28 | B6 | 11.5%
29 | B7 | 7.3%
30 | B8 | 1.5%
31 | B9 | 3.2%
32 | B10 | 11.2%
33 | B11 | 15.6%

Each binder was assayed against erythrocytes infected with P. falciparum field isolate 9605 (assay: flow cytometry, staining of IEs).

Row | Binder | % parasite recognition
34 | B1 | 21.1%
35 | B2 | 17.3%
36 | B3 | 22.2%
37 | B4 | 22.8%
38 | B5 | 20.9%
39 | B6 | 22.3%
40 | B7 | 17.2%
41 | B8 | 6.8%
42 | B9 | 22.9%
43 | B10 | 28.7%
44 | B11 | 37.2%

Each binder was assayed against erythrocytes infected with P. falciparum field isolate 9775 (assay: flow cytometry, staining of IEs).

Row | Binder | % parasite recognition
45 | B1 | 3.4%
46 | B2 | 6.6%
47 | B3 | 6.1%
48 | B4 | 4.6%
49 | B5 | 9.8%
50 | B6 | 9.7%
51 | B7 | 8.6%
52 | B8 | 2.5%
53 | B9 | 7.9%
54 | B10 | 14.4%
55 | B11 | 19.4%

Each binder was assayed against erythrocytes infected with P. falciparum field isolate 10936 (assay: flow cytometry, staining of IEs).

Row | Binder | % parasite recognition
56 | B1 | 3.6%
57 | B2 | 2.4%
58 | B3 | 2.3%
59 | B4 | 1.7%
60 | B5 | 3%
61 | B6 | 3.6%
62 | B7 | 6.1%
63 | B8 | 2.4%
64 | B9 | 2.9%
65 | B10 | 11.3%
66 | B11 | 13.3%

Each binder was assayed against erythrocytes infected with P. falciparum field isolate 11019 (assay: flow cytometry, staining of IEs).

Row | Binder | % parasite recognition
67 | B1 | 50.8%
68 | B2 | 4.3%
69 | B3 | 31.1%
70 | B4 | 13.8%
71 | B5 | 30%
72 | B6 | 23.5%
73 | B7 | 6.8%
74 | B8 | 7.1%
75 | B9 | 38.1%
76 | B10 | 24.6%
77 | B11 | 33.1%

These binders were tested against erythrocytes infected with P. falciparum field isolate 11014 (assay: flow cytometry, staining of IEs).

Row | Binder | % parasite recognition
78 | B1 | 5.4%
79 | B2 | 9.5%
80 | B3 | 3.6%
81 | B4 | 2.9%
82 | B5 | 2.8%
83 | B6 | 2.9%
84 | B7 | 6.6%
85 | B8 | 1.6%
86 | B9 | 4.5%
87 | B10 | 10.2%
88 | B11 | 14.7%
